Source: IntAct's records for PubMed 34927784

B1: Endosomal transmembrane epsin interactor 1 (Homo sapiens), Q15884 (parent)
chain: MILLVNLFVLLSVVCVLLNLAGFILGCQGAQFVSSVPRCDLVDLGEGKICFCCEEFQPAKCTDKENALKLFPVQPCSAVHLLLKKVLFALCALNALTTTVCLVAAALRYLQIFATRRSCIDESQISAEEAEDHGRIPDPDDFVPPVPPPSYFATFYSCTPRMNRRMVGPDVIPLPHIYGARIKGVEVFCPLDPPPPYEAVVSQMDQEQGSSFQMSEGSEAAVIPLDLGCTQVTQDGDIPNIPAEENASTSTPSSTLVRPIRSRRALPPLRTRSKSDPVLHPSEERAAPVLSCEAATQTERRLDLAAVTLRRGLRSRASRCRPRSLIDYKSYMDTKLLVARFLEQSSCTMTPDIHELVENIKSVLKSDEEHMEEAITSASFLEQIMAPLQPSTSRAHKLPSRRQPGLLHLQSCGDLHTFTPAGRPRAERRPRRVEAERPHSLIGVIRETVL

What was measured:
[1] = variants of: B1; conditions: with ITCH
[2] = variants of: B1; conditions: with epn1_human EPN1, Q9Y6I3
Chain of epn1_human EPN1, Q9Y6I3 (Q9Y6I3 whole entry): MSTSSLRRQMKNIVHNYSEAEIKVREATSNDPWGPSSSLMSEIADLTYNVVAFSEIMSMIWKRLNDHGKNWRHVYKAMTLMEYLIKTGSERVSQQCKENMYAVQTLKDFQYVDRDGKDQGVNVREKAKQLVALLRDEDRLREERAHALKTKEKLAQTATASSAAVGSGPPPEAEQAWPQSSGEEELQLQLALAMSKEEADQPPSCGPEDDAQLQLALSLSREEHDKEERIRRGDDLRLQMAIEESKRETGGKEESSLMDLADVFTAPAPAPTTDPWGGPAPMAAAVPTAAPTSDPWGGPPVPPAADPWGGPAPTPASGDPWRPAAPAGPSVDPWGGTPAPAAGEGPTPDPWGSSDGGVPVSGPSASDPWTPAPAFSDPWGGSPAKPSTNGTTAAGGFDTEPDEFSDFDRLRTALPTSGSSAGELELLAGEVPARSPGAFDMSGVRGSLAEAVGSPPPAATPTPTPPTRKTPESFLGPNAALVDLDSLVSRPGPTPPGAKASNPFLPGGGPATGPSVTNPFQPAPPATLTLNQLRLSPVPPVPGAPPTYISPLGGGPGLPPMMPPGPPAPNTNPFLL

[3] = variants of: B1; conditions: with ITCH; remark: listed apart in the source
[4] = variants of: B1; conditions: with ITCH; remark: listed apart in the source

Variant	effect of a mutation on the interaction [1]	effect of a mutation on the interaction [2]	effect of a mutation on the interaction [3]	effect of a mutation on the interaction [4]
MILLVNLFVLLSVVCVLLNLAGFILGCQGAQFVSSVPRCDLVDLGEGKICFCCEEFQPAKCTDKENALKLFPVQPCSAVHLLLKKVLFALCALNALTTTVCLVAAALRYLQIFATRRSCIDESQISAEEAEDHGRIPDPDDFVPPVPPPSAFATFYSCTPRMNRRMVGPDVIPLPHIYGARIKGVEVFCPLDPPPPYEAVVSQMDQEQGSSFQMSEGSEAAVIPLDLGCTQVTQDGDIPNIPAEENASTSTPSSTLVRPIRSRRALPPLRTRSKSDPVLHPSEERAAPVLSCEAATQTERRLDLAAVTLRRGLRSRASRCRPRSLIDYKSYMDTKLLVARFLEQSSCTMTPDIHELVENIKSVLKSDEEHMEEAITSASFLEQIMAPLQPSTSRAHKLPSRRQPGLLHLQSCGDLHTFTPAGRPRAERRPRRVEAERPHSLIGVIRETVL [Y151A]	with no effect	–	–	–
MILLVNLFVLLSVVCVLLNLAGFILGCQGAQFVSSVPRCDLVDLGEGKICFCCEEFQPAKCTDKENALKLFPVQPCSAVHLLLKKVLFALCALNALTTTVCLVAAALRYLQIFATRRSCIDESQISAEEAEDHGRIPDPDDFVPPVPPPSAFATFYSCTPRMNRRMVGPDVIPLPHIYGARIKGVEVFCPLDPPPPAEAVVSQMDQEQGSSFQMSEGSEAAVIPLDLGCTQVTQDGDIPNIPAEENASTSTPSSTLVRPIRSRRALPPLRTRSKSDPVLHPSEERAAPVLSCEAATQTERRLDLAAVTLRRGLRSRASRCRPRSLIDYKSYMDTKLLVARFLEQSSCTMTPDIHELVENIKSVLKSDEEHMEEAITSASFLEQIMAPLQPSTSRAHKLPSRRQPGLLHLQSCGDLHTFTPAGRPRAERRPRRVEAERPHSLIGVIRETVL [Y151A;Y197A]	decreasing interaction strength	with no effect	with no effect	disrupting interaction strength
MILLVNLFVLLSVVCVLLNLAGFILGCQGAQFVSSVPRCDLVDLGEGKICFCCEEFQPAKCTDKENALKLFPVQPCSAVHLLLKKVLFALCALNALTTTVCLVAAALRYLQIFATRRSCIDESQISAEEAEDHGRIPDPDDFVPPVPPPSYFATFYSCTPRMNRRMVGPDVIPLPHIYGARIKGVEVFCPLDPPPPAEAVVSQMDQEQGSSFQMSEGSEAAVIPLDLGCTQVTQDGDIPNIPAEENASTSTPSSTLVRPIRSRRALPPLRTRSKSDPVLHPSEERAAPVLSCEAATQTERRLDLAAVTLRRGLRSRASRCRPRSLIDYKSYMDTKLLVARFLEQSSCTMTPDIHELVENIKSVLKSDEEHMEEAITSASFLEQIMAPLQPSTSRAHKLPSRRQPGLLHLQSCGDLHTFTPAGRPRAERRPRRVEAERPHSLIGVIRETVL [Y197A]	decreasing interaction strength	–	–	–
